In patent publication US20170088632A1 (OMEROS, published 2017):
Values joined by “and” are separate entries in the source; they are usually repeats but may differ in a detail not shown here. Equal entries are not always repeated. Where two headings read alike, the source gives them in different places. One block for each binder: values may come before it.

Columns and labels:
human MASP-2 [1] = biological target: T1, human MASP-2 (human, UniProt O00187 16-686); test: cell-based or functional assay
T1 sequence (O00187 16-686): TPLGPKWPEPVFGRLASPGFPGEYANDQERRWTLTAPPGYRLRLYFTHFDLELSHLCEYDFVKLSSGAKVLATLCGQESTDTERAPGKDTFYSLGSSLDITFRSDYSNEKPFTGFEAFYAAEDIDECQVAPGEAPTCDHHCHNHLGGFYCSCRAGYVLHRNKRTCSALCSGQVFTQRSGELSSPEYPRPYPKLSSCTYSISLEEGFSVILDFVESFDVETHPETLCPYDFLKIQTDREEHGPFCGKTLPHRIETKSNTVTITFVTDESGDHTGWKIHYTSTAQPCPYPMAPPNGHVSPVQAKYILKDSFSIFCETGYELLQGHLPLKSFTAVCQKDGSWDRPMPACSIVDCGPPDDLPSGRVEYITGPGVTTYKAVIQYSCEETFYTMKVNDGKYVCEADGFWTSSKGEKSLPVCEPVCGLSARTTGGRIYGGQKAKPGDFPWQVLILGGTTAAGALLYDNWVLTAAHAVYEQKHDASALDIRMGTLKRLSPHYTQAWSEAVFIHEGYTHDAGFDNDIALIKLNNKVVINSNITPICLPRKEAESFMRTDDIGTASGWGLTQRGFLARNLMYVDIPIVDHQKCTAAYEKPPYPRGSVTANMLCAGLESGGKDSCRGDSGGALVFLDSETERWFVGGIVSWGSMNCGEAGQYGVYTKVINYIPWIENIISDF

human MASP-2 [2] = biological target: T1, human MASP-2; test: titration ELISA on MASP-2 (10 µg/ml)
[3] = biological target: T2, human MASP-2A (catalytically inactive human MASP-2, Ser618 to Ala618) (human, UniProt O00187 16-686); test: ELISA, purified scFv titrated on physically adsorbed human MASP-2A
T2 construct: the ELISA and Biacore methods say only 'MASP-2A', so a tag may have been present; also called huMASP2A; huMASP-2A
T2 sequence (O00187 16-686 S633A): as the sequence (O00187 16-686) above, with S618A counted along it

human MASP-2 [4] = biological target: T1, human MASP-2; test: cell-based or functional assay; remark: listed apart in the source
human MASP-2 [5] = biological target: T1, human MASP-2; test: cell-based or functional assay; remark: listed apart in the source
[6] = biological target: T3, African Green monkey MASP-2 (in African Green monkey serum) (African Green monkey); test: cell-based or functional assay
[7] = biological target: T2, human MASP-2A (catalytically inactive …); test: SPR (Biacore), MASP-2A amine coupled to CM5 chip, scFv monomer in solution
[8] = biological target: T2, human MASP-2A (catalytically inactive …); test: SPR (Biacore), scFv captured by anti-cMyc antibody, MASP-2A in solution; MASP-2 in solution, scFv captured (not immobilized MASP-2)
[9] = biological target: T2, human MASP-2A (catalytically inactive …); test: titration ELISA on coated human MASP-2A ('Binding affinity'), IgG4 mutated format
Protocol: (§1) The clones were then purified and re-tested in an ELISA and activity assay as follows. Human MASP-2A was coated at 3 μg/ml in PBS on a maxisorp plate, IgG (45 μg/ml) and Fab′2 (30 μg/ml) were diluted in PBS-Tween to a starting concentration of 300 nM, and further with 3-fold dilutions. IgGs were detected with HRP conjugated Goat α-Human IgG (Southern Biotech) and the F(ab′)2 were detected with HRP-conjugated Goat α-Human IgG H+L (Pierce 31412). The reaction was developed with TMB substrate and stopped with 2M H₂SO₄.

[10] = biological target: T2, human MASP-2A (catalytically inactive …); test: titration ELISA on coated human MASP-2A ('Binding affinity'), F(ab′)2
Protocol: as §1

[11] = biological target: T4, rat MASP-2 (in rat serum) (rat, UniProt Q9JJS8 20-685); test: cell-based or functional assay
T4 sequence (Q9JJS8 other isoform, or with tags, fused parts or gaps limits assumed): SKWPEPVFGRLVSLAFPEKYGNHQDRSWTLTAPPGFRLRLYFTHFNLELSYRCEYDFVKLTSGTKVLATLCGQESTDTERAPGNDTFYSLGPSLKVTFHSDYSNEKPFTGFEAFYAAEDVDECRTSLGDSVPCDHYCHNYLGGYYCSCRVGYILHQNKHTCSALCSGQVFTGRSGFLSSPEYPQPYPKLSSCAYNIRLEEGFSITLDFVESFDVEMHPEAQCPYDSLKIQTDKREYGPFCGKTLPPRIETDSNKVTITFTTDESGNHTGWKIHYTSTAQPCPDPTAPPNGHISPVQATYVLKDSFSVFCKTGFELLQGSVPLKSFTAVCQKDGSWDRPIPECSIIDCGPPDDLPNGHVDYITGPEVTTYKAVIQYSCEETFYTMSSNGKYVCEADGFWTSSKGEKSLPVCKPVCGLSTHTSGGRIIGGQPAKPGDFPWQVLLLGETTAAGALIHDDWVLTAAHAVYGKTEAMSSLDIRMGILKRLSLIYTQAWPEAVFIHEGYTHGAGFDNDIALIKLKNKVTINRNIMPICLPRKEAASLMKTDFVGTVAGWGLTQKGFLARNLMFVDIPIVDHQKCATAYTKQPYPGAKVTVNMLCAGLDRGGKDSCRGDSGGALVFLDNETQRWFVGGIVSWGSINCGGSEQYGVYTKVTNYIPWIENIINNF

human MASP-2 [12] = biological target: T1, human MASP-2; test: cell-based or functional assay; remark: listed apart in the source
human MASP-2 [13] = biological target: T1, human MASP-2; test: cell-based or functional assay; remark: listed apart in the source
human MASP-2 [14] = biological target: T1, human MASP-2; test: cell-based or functional assay; remark: listed apart in the source
human MASP-2 [15] = biological target: T1, human MASP-2; test: cell-based or functional assay; remark: listed apart in the source
[16] = biological target: T3, African Green monkey MASP-2 (in African …); test: cell-based or functional assay; remark: listed apart in the source
[17] = biological target: T2, human MASP-2A (catalytically inactive …); test: SPR (Biacore), scFv captured by anti-cMyc antibody, MASP-2A in solution
human MASP-2 [18] = biological target: T1, human MASP-2; test: cell-based or functional assay; remark: listed apart in the source
human MASP-2 [19] = biological target: T1, human MASP-2; test: cell-based or functional assay; remark: listed apart in the source
[20] = biological target: T4, rat MASP-2 (in rat serum); test: cell-based or functional assay; remark: listed apart in the source
[21] = biological target: T3, African Green monkey MASP-2 (in African …); test: cell-based or functional assay; remark: listed apart in the source
[22] = biological target: T2, human MASP-2A (catalytically inactive …); test: ELISA on adsorbed human MASP-2A, purified scFv monomer
[23] = biological target: T2, human MASP-2A (catalytically inactive …); test: ELISA, purified scFv titrated on physically adsorbed human MASP-2A; remark: listed apart in the source

1% human serum C3 assay IC50 (human MASP-2 [1]): 360 nM | 90% human serum C4 assay IC50 (human MASP-2 [1]): ~500 nM | Kd (human MASP-2 [2]): 10 nM | EC50 (read off the curve) [3]: ~3 nM
B1: scFv daughter clone 17D20m_d21N11 (scFv)
scFv: QVTLKESGPVLVKPTETLTLTCTVSGFSLSRGKMGVSWIRQPPGKALEWLAHIFSSDEKSYRTSLKSRLTISKDTSKNQVVLTMTNMDPVDTATYYCARIRAGGIDYWGQGTLVTVSSKLSGSASAPKLEEGEFSEARVQPVLTQPPSLSVSPGQTASITCSGEKLGDKYAYWYQQKPGQSPVLVMYQDKQRPSGIPERFSGSNSGNTATLTISGTQAMDEADYYCQAWDSSTAVFGGGTKLTVL

Inhibitory activity in Human Serum IC50 (C3b deposition, 0.5% human serum) (human MASP-2 [4]): 22 nM | Functional IC50, C3b deposition, human serum Exp #1 (human MASP-2 [5]): 22 nM | Functional IC50, C3b deposition, human serum Exp #2 (human MASP-2 [5]): 46.3 nM | Functional IC50, C3b deposition, human serum Exp #3 (human MASP-2 [5]): 62.2 nM | Functional IC50, C3b deposition, human serum Exp #4 (human MASP-2 [5]): 38.4 nM | Functional IC50, C3b deposition, non-human primate serum Exp #1 [6]: 115 nM | Functional IC50, C3b deposition, non-human primate serum Exp #2 [6]: 203 nM | Kd [7]: 8.4 nM | Kd [8]: 0.02 nM
B2: scFv mother clone 4D9 (scFv)
scFv: QITLKESGPVLVKPTETLTLTCTVSGFSLSNARMGVSWIRQPPGKALEWLAHIFSNDEKSYSTSLKSRLTISKDTSKSQVVLTMTNMDPVDTATYYCARMRYSSSLYGMDVWGQGTRVTVSSKLSGSASAPKLEEGEFSEARVSYELIQPPSVSVSPGQTASITCSGDKLGDKYVSWYQQKPGRSPVLVIYRDTKRPSGIPERFSGSNSGNTATLTISGTQAMDEADYYCQAWDSSTVVFGGGTKLTVLAAAGSEQKLISEEDLNSHHHHHH
notes: also called 4D9 (18L16)

Kd [9]: 0.0206 nM
B3: 17N16 mother clone, IgG4 hinge mutant (S228P) format (antibody, V domains shown)
VH: QVQLQQSGPGLVKPSQTLSLTCAISGDSVSSTSAAWNWIRQSPSRGLEWLGRTYYRSKWYNDYAVSVKSRITINPDTSKNQFSLQLNSVTPEDTAVYYCARDPFGVPFDIWGQGTMVTVSS
VL: SYVLTQPPSVSVAPGQTARITCGGNNIGSKNVHWYQQKPGQAPVLVVYDDSDRPSGIPERFSGSNSGNTATLTVSRVEAGDEADYYCQVWDTTTDHVVFGGGTKLTVL
notes: IgG4 S228P; also called 17N16 IgG4 mutated format

Kd [10]: 0.0959 nM
B4: 17N16 mother clone, F(ab′)2 format (Fab, V domains shown)
VH: B3 VH
VL: B3 VL
notes: also called 17N16 F(ab′)2

Functional IC50, C3b deposition, human serum Exp #2 (human MASP-2 [5]): 104 nM | Functional IC50, C3b deposition, human serum Exp #3 (human MASP-2 [5]): 308 nM | Functional IC50, C3b deposition, human serum Exp #4 (human MASP-2 [5]): 199 nM | Functional IC50, C3b deposition, rat serum Exp #1 [11]: 41 nM | Functional IC50, C3b deposition, non-human primate serum Exp #2 [6]: 71.7 nM
B5: scFv mother clone 17L20 (scFv)
scFv: EVQLQQSGPGLVKPSQTLSLTCAISGDSVSSKRAAWDWIRQSPSRGLEWLGRTYYRSKWFNDYAISVKSRITINADTSRNQFSLQLNSVTPEDTAVYYCVKSNSGTGAFDSWGQGTLVTVSSKLSGSASAPKLEEGEFSEARVQPGLTQPPSVSVSPGQTARITCSRDKLGDKYVSWYQQKPGQSPVVVMYKDNKRPSGIPERFSGSNSGNTATLTISGTQAMDEADYYCQAWDSSTAGVFGGGTKLTVLAAAGSEQKLISEEDLNSHHHHHH

C4b deposition in 90% human serum, IC50 relative to the C3b deposition assay (human MASP-2 [12]): ~3 fold | C3b deposition assay in 1% human serum, IC50 (human MASP-2 [13]): 11 nM and 27 nM | Kd [9]: 0.0284 nM
B6: 17D20 mother clone, IgG4 hinge mutant (S228P) format (antibody, V domains shown)
VH: QVTLKESGPVLVKPTETLTLTCTVSGFSLSRGKMGVSWIRQPPGKALEWLAHIFSSDEKSYRTSLKSRLTISKDTSKNQVVLTMTNMDPVDTATYYCARIRAGGIDYWGQGTLVTVSS
VL: QPVLTQPPSVSVSPGQTASITCSGDKLGDKFAYWYQQKPGHSPVLVIYQDNKRPSGIPGRFSGSNSGNTATLTISGTQAMDEADYYCQAWDSSTAVFGTGTKVTVLA
notes: IgG4 S228P; also called 17D20 IgG4 mutated format; 17D20 IgG4 S228P

C3 convertase assay using 1% human serum, IC50 (first experiment) (human MASP-2 [14]): 7.3 nM | C3 convertase assay using 1% human serum, IC50 (second experiment) (human MASP-2 [14]): 13.5 nM | Kd [10]: 0.181 nM
B7: 17D20 mother clone, F(ab′)2 format (Fab, V domains shown)
VH: B6 VH
VL: B6 VL
notes: also called 17D20 F(ab′)2

Inhibitory activity in Human Serum IC50 (C3b deposition, 0.5% human serum) (human MASP-2 [4]): 157 nM | Functional IC50, C3b deposition, human serum Exp #1 (human MASP-2 [5]): 157 nM | Functional IC50, C3b deposition, human serum Exp #2 (human MASP-2 [5]): 39.9 nM | Functional IC50, C3b deposition, human serum Exp #3 (human MASP-2 [5]): 24.1 nM | Functional IC50, C3b deposition, human serum Exp #4 (human MASP-2 [5]): 23.7 nM | Functional IC50, C3b deposition, rat serum Exp #1 [11]: 434 nM | Functional IC50, C3b deposition, non-human primate serum Exp #1 [6]: 94.8 nM | Functional IC50, C3b deposition, non-human primate serum Exp #2 [6]: 71.8 nM | C3 Assay IC50 in dilute serum (1%), human serum Exp #1 (human MASP-2 [15]): 24 nM | C3 Assay IC50 in dilute serum (1%), human serum Exp #2 (human MASP-2 [15]): 24 nM | C3 Assay IC50 in dilute serum (1%), human serum Exp #3 (human MASP-2 [15]): 40 nM | C3 Assay IC50 in dilute serum (1%), human serum mean (human MASP-2 [15]): 29 nM | C3 Assay IC50, non-human primate serum Exp #1 [16]: 94 nM | C3 Assay IC50, non-human primate serum Exp #2 [16]: 74 nM | C3 Assay IC50, non-human primate serum mean [16]: 84 nM | C3 convertase assay using 1% human serum, IC50 (first experiment) (human MASP-2 [14]): 98.3 nM | C3 convertase assay using 1% human serum, IC50 (second experiment) (human MASP-2 [14]): 151 nM | 1% human serum C3 assay IC50 (human MASP-2 [1]): 38 nM | Kd (human MASP-2 [2]): 1.9 nM | Kd [17]: 0.76 nM | EC50 (read off the curve) [3]: ~2 nM | Kd [7]: 11.3 nM
B8: scFv mother clone 17D20 (scFv)
scFv: QVTLKESGPVLVKPTETLTLTCTVSGFSLSRGKMGVSWIRQPPGKALEWLAHIFSSDEKSYRTSLKSRLTISKDTSKNQVVLTMTNMDPVDTATYYCARIRAGGIDYWGQGTLVTVSSKLSGSASAPKLEEGEFSEARVQPVLTQPPSVSVSPGQTASITCSGDKLGDKFAYWYQQKPGHSPVLVIYQDNKRPSGIPGRFSGSNSGNTATLTISGTQAMDEADYYCQAWDSSTAVFGTGTKVTVLAAAGSEQKLISEEDLNSHHHHHH
notes: also called 17D20 (17P10); 17D20mc

Complement assay IC50 (human MASP-2 [18]): 10.3 nM | IC50, C3c release, 1% human serum (first experiment) (human MASP-2 [19]): 39.9 nM | IC50, C3c release, 1% human serum (second experiment) (human MASP-2 [19]): 57.7 nM | IC50, C3c release, 0.375% rat serum (first experiment) [20]: 79.3 nM | IC50, C3c release, 0.375% rat serum (second experiment) [20]: 141 nM | IC50, C3c release, 0.2% African Green serum (first experiment) [21]: 63.8 nM | IC50, C3c release, 0.2% African Green serum (second experiment) [21]: 81.1 nM | 1% human serum C3 assay IC50 (human MASP-2 [1]): 48 nM | 90% human serum C3 assay IC50 (human MASP-2 [1]): 15 nM | 90% human serum C4 assay IC50 (human MASP-2 [1]): 230 nM | Kd [22]: 48.6 nM | EC50 (read off the curve) [23]: ~0.8 nM
B9: scFv daughter clone 17N16m_d17N9 (scFv)
scFv: QVQLQQSGPGLVKPSQTLSLTCAISGDSVSSTSAAWNWIRQSPSRGLEWLGRTYYRSKWYNDYAVSVKSRITINPDTSKNQFSLQLNSVTPEDTAVYYCARDPFGVPFDIWGQGTMVTVSSKLSGSASAPKLEEGEFSEARVSYELIQPPSVSVAPGQTATITCAGDNLGKKRVHWYQQRPGQAPVLVIYDDSDRPSGIPDRFSASNSGNTATLTITRGEAGDEADYYCQVWDIATDHVVFGGGTKLTVLAAAGSEQKLISE
notes: also called 17N9 daughter clone
